B1: rabbit anti-CAPRIN-1 monoclonal antibody #1 (antibody, V domains shown)
VH: QSLEESGGDLVKPGASLTLTCTASGFSFSGSYYMSWVRQAPGKGLEWIAYIYIGDGVTAYANWAKGRFTISKASSTTVTLQMTSLTAADTATYFCARGNKLWGPGTLVTVSS
VL: DVVMTQTPASVEAAVGGTVTIKCQASQSISSYLAWYQQKPGQPPKRLIYDASNLDSGVPSRFKGSGSGTDFTITISDLECADAATYYCQCTAVSSATIYGNAFGGGTEVVVK
notes: Rabbit hybridoma monoclonal antibody; also called rabbit anti-CAPRIN-1 antibody #1
B2: human-rabbit chimeric anti-CAPRIN-1 antibody #1 (antibody, human IgG1, V domains shown)
VH: QSLEESGGDLVKPGASLTLTCTASGFSFSGSYYMSWVRQAPGKGLEWIAYIYIGDGVTAYANWAKGRFTISKASSTTVTLQMTSLTAADTATYFCARGNKLWGPGTLVTVSS
VL: DVVMTQTPASVEAAVGGTVTIKCQASQSISSYLAWYQQKPGQPPKRLIYDASNLDSGVPSRFKGSGSGTDFTITISDLECADAATYYCQCTAVSSATIYGNAFGGGTEVVVK
notes: also called human-rabbit chimeric anti-CAPRIN-1 monoclonal antibody #1
B3: humanized anti-CAPRIN-1 antibody #2 (antibody, V domains shown)
VH: EVQLVESGGGLVQPGGSLRLSCAASGFSFSGSYYMSWVRQAPGKGLEWIAYIYIGDGVTAYANWAKGRFTISKDNSKNTLYLQMNSLRAEDTAVYFCARGNKLWGPGTLVTVSS
VL: DIQMTQSPSSLSASVGDRVTIKCQASQSISSYLAWYQQKPGKAPKRLIYDASNLDSGVPSRFSGSGSGTDFTFTISSLQPEDIATYYCQCTAVSSATIYGNAFGGGTKVEIK
notes: Human IgG1 heavy chain constant region and 'human IgG1 light chain constant region'; also called humanized rabbit anti-CAPRIN-1 monoclonal antibody #2; humanized anti-CAPRIN-1 monoclonal antibody #2
B4: humanized anti-CAPRIN-1 antibody #3 (antibody, V domains shown)
VH: EVQLVESGGGLVQPGGSLRLSCAASGFSFSGSYYMSWVRQAPGKGLEWIAYIYIGDGVTAYANWAKGRFTISRDNSKNTLYLQMNSLRAEDTAVYYCARGNKLWGPGTLVTVSS
VL: DIQMTQSPSSLSASVGDRVTIKCQASQSISSYLAWYQQKPGKAPKRLIYDASNLDSGVPSRFSGSGSGTDFTFTISSLQPEDIATYYCQCTAVSSATIYGNAFGGGTKVEIK
notes: Human IgG1 heavy chain constant region and 'human IgG1 light chain constant region'; also called humanized rabbit anti-CAPRIN-1 monoclonal antibody #3; humanized anti-CAPRIN-1 monoclonal antibody #3
B5: humanized anti-CAPRIN-1 antibody #1 (antibody, V domains shown)
VH: QVQLVESGGGLVKPGGSLRLSCAASGFSFSGSYYMSWVRQAPGKGLEWIAYIYIGDGVTAYANWAKGRFTISRDNAKNSLYLQMNSLRAEDTAVYFCARGNRLWGQGTLVTVSS
VL: DIQMTQSPSSLSAAVGDRVTIKCQASQSISSYLAWYQQKPGKPPKRLIYDASNLDSGVPSRFSGSGSGTDFTFTISSLQPEDIATYYCQCTAVSSATIYGNAFGGGTKVEIK
notes: Human IgG1 heavy chain constant region and 'human IgG1 light chain constant region'; also called humanized rabbit anti-CAPRIN-1 monoclonal antibody #1; humanized anti-CAPRIN-1 monoclonal antibody #1

How the values were obtained:
[1] = target: T1, partial CAPRIN-1 polypeptide consisting of the amino acid sequence of SEQ ID NO: 5 (human); assay: ELISA on immobilized peptides, antibody at 0.1 µg/mL
T1 construct: Synthetic peptide immobilized on ELISA plates
T1 peptide: ATQVPLVSSTSEGYTA
Experimental: Each peptide was dissolved at a concentration of 30 μg/ml in a 0.1 M sodium carbonate buffer solution (pH 9.6). […] The solution in each well was discarded, and 10 mM ethanolamine/0.1 M sodium carbonate buffer solution (PH 9.6) was added thereto at a concentration of 200 μL/well and left standing at room temperature for 1 hour. Then, the solution in each well was discarded, and each well was washed twice with PBS containing 0.5% Tween 20 (PBST) to prepare a peptide-immobilized plate. For verification, CAPRIN-1 proteins were immobilized on wells of this plate to prepare another plate according to the method described above. […] After shaking at room temperature for 1 hour, the solution in each well was discarded, and each well was washed three times with PBST. Next, a secondary antibody solution containing HRP-labeled anti-rabbit IgG antibodies diluted 3000- to 4000-fold with PBST was added thereto at a concentration of 50 μL/well. Then, the solution in each well was discarded, and each well was washed six times with PBST. A TMB substrate solution (manufactured by Thermo Fisher Scientific Inc.) was added thereto at a concentration of 100 μL/well and left standing for 15 to 30 minutes to cause color reaction. […] The absorbance was measured at 450 nm and 595 nm using an absorption spectrometer.

[2] = target: T1, partial CAPRIN-1 polypeptide consisting …; assay: ELISA as in Example 9(1), purified antibody
[3] = target: T2, human CAPRIN-1 protein having the amino acid sequence of SEQ ID NO: 2 (human, UniProt Q14444 1-709, limits assumed); assay: ELISA as in Example 9(3)
T2 construct: also called CAPRIN-1 proteins
T2 sequence: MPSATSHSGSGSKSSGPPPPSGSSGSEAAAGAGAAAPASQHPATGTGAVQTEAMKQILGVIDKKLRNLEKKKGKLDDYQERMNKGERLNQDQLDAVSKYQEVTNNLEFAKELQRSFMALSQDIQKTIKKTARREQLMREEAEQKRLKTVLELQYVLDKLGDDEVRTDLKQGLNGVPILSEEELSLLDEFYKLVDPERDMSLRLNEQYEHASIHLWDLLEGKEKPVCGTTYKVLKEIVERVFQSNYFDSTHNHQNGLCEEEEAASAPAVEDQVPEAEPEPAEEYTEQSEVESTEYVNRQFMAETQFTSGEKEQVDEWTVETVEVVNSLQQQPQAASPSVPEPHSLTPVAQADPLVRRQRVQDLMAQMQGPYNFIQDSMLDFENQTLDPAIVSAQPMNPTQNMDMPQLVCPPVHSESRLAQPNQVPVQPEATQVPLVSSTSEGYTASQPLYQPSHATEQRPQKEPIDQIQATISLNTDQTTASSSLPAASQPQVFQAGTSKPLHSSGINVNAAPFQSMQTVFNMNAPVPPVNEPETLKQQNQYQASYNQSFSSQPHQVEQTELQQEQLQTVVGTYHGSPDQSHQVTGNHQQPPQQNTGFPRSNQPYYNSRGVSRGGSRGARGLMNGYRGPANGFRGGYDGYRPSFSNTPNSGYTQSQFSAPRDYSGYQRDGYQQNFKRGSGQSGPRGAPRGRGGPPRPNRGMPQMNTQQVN

[4] = target: T1, partial CAPRIN-1 polypeptide consisting …; assay: peptide ELISA as in Example 9(3)
[5] = target: T3, CAPRIN-1 protein on the cell membrane surface of human cancer cell lines (human, UniProt Q14444 2-709); assay: flow cytometry on human cancer cell lines as in Example 9(3)
T3 construct: whole, on cells; Endogenous CAPRIN-1 on human cancer cell lines (MDA-MB-231V, QG56, DLD-1, Capan-2 and others); The cells were not transfected; also called CAPRIN-1 on cancer cell surface
T3 sequence (looked up): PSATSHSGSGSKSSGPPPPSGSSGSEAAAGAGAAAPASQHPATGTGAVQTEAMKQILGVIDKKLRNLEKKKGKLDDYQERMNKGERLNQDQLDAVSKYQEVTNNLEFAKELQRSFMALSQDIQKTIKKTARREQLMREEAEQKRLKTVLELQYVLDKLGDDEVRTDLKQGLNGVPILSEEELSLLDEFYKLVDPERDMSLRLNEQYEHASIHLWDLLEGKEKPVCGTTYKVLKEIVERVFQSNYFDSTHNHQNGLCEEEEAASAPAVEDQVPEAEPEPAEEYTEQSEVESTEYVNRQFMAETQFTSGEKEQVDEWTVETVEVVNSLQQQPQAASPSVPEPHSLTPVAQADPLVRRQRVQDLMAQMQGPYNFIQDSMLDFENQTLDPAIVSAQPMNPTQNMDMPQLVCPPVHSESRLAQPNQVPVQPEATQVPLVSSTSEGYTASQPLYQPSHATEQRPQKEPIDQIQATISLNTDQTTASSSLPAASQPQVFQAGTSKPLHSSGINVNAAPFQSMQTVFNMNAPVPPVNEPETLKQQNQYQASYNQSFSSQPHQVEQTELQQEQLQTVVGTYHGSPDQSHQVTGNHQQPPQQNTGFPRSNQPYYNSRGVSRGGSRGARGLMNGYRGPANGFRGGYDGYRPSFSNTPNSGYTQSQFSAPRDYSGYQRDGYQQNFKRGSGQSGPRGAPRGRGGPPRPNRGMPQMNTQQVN

Binder | binding result [1] | binding result [2] | binding result [3] | binding result [4] | binding result [5]
B1 | binds |  |  |  | 
B2 |  | binds |  |  | 
B3 |  |  | binds | binds | binds
B4 |  |  | binds | binds | binds
B5 |  |  | binds | binds | binds
